Test results published in patent US6897054 (JAPAN SCIENCE AND TECHNOLOGY AGENCY, dated 2005).

B1: H37 deletion derivative ΔB fused to Gal4 activation domain (other, not shown: small tags and cut ends)
chain: MNSGAMRIHSKGHFQGGIQVKNEKNRPSLKSLKTDNRPEKSKCKPLWGKVFYLDLPSVTISEKLQKDIKDLGGRVEEFLSKDISYLISNKKEAKFAQTLGRISPVPSPESAYTAETTSPHPSHDGSSFKSPDTVCLSRGKLLVEKAIKDHDFIPSNSILSNALSWGVKILHIDDIRYYIEQKKKELYLLKKSSTSVRDGGKRVGSGAQKTRTGRLKKPFVKVEDMSQLYRPFYLQLTNMPFINYSIQKPCSPFDVDKPSSMQKQTQVKLRIQTDGDKYGGTSIQLQLKEKKKKGYCECCLQKYED
notes: The range is worked out from the printed count of deleted residues and a length of 674; also called deltaB
B2: H37 deletion derivative ΔN3 fused to Gal4 activation domain (other, not shown: small tags and cut ends)
chain: LETHLLSEQHRNFAQSNQYQVVDDIVSKLVFDFVEYEKDTPKKKRIKYSVGSLSPVSASVLKKTEQKEKVELQHISQKDCQEDDTTVKEQNFLYKETQETEKKLLFISEPIPHPSNELRGLNEKMSNKCSMLSTAEDDIRQNFTQLPLHKNKQECILDISEHTLSENDLEELRVDHYKCNIQASVHVSDFSTDNSGSQPKQKSDTVLFPAKDLKEKDLHSIFTHDSGLITINSSQEHLTVQAKAPFHTPPEEPNECDFKNMDSLPSGKIHRKVKIILGRNRKENLEPNAEFDKRTEFITQEENRICSSPVQSLLDLFQTSEEKSEFLGFTSYTEKSGICNVLDIWEEENSDNLLTAFFSSPSTSTFTGF
notes: The range is worked out from the printed counts of deleted residues and a length of 674
B3: H37 deletion derivative ΔP1 fused to Gal4 activation domain (other, not shown: small tags and cut ends)
chain: MNSGAMRIHSKGHFQGGIQVKNEKNRPSLKSLKTDNRPEKSKCKPLWGKVFYLDLPSVTISEKLQKDIKDLGGRVEEFLSKDISYLISNKKEAKFAQTLGRISPVPSPESAYTAETTSPHPSHDGSSFKSPDTVCLSRGKLLVEKAIKDHDFIPSNSILSNALSWGVKILHIDDIRYYIEQKKKELYLLKKSSTSVRDGGKRVGSGAQKTRTGRLKKPFVKVEDMSQLYRPFYLQ

Biological target: T1, huCdc7 fused to DNA-binding domain of Gal4 (human, UniProt P04386 1-147; O00311 1-574, limits assumed)
T1 construct: Yeast two-hybrid bait in strain CG1945; also called huCdc7 (two-hybrid bait)
Assay: yeast two-hybrid assay, lacZ activity
Method: In order to determine the region on H37 protein essential for binding with huCdc7, a series of deletion derivatives of H37 at N- and C-terminals as shown in FIG. 7 was prepared, each of them was expressed in yeast as a fusion protein with Gal4 activated domain and an interaction of each deletion derivative with huCdc7 was investigated by means of a two-hybrid assay. […] However, when 50 amino acids at N-terminal were further deleted whereupon the H37 motif C was deleted, an interaction with huCdc7 was completely lost (ΔN3).

Binder	interaction relative to the full-length clone	binding result
B1	~10%	
B2		no binding
B3		no binding
